# In US20060287243A1, “Stable pharmaceutical compositions including motilin-like peptides” (priority 2005, published 2006):
# Square brackets hold non-standard residues; d marks the D form.
# How the values were obtained:
# Assay type in all cases: physicochemical
# [1] = Storage stability of aqueous buffered composition in Schott Type 1 vials
# Text: Some plastics have also proven to be effective in assisting in the stabilization of the peptide composition. In this regard, preferred plastics are cyclic olefin copolymers, available, for example, from West Pharmaceuticals under the product name CZ resin vials, or from Schott under the product name TopPac vials, or from Alcan packaging under the product name Ticona Topas serum vials. The compositions of the present invention may also be stored in PVC, as well as non-PVC flexible bags. When stored in the above described glass or plastic containers, the above-described storage times at the above-described storage temperatures can be achieved, although for storage periods of at least 18 months, Type I Plus (vapor treated silicon) vials and Type I Plus glass ampules are preferred. […] It will be appreciated by those skilled in the art that the measured stability of pharmaceutical compositions at elevated temperatures, such as 40° C. or higher, may serve as the basis of prediction of stability for longer periods at more typical storage temperatures, such as 20°-25° C. or 4°-8° C., for example. Such “accelerated storage” studies are common in the field of the present invention.
# [2] = Stability of motilin-like peptide following autoclaving and storage (HPLC, undegraded peptide remaining); details: 30 μg/ml in 10 mM sodium acetate buffer pH 5.0, Type I glass vials, autoclaved 121° C. 15 minutes, storage 3 months at 55° C. (FIG. 2)
# Text: A further advantage of the pharmaceutical composition of the present invention is its peptide stability when the composition is subjected to elevated temperatures such as the temperature of steam sterilization. Many peptides are inherently unstable and, when subjected to heat, are known to degrade very rapidly, typically in a few minutes or less. In contrast, in compositions of the present invention, the peptide substantially retains its stability (i.e., remains substantially undegraded and retains a substantial percentage of its initial potency), even after the composition is (1) subjected to steam sterilization (for at least 10 minutes and up to 60 minutes at temperatures of approximately 100° C.-128° C. and typically 121° C.), and (2) subsequently stored in a suitable container (described below) at lower temperatures typically encountered by a pharmaceutical composition, such as about 4° C.-5° C. to about 25° C.
# The motilin-like peptide of SEQ ID NO.: 1 was dissolved at a concentration of 30 μg/ml in 10 mM sodium acetate buffer, pH 5.0. […] The potency of the peptide following storage at each temperature was measured over time by testing samples after incubation of one week, two weeks, three weeks, one month and three months. Potency was determined by using HPLC to measure the amount of undegraded peptide remaining in each sample. […]
# [3] = Long-term storage stability of the aqueous buffered composition; details: pH between approximately 3 and 9, preferably 4.8-5.2
# Description: The aqueous pharmaceutical compositions of the present invention provides benefits previously unknown. The motilin-like peptide of pharmaceutical compositions of the present invention remains stable when stored over a wide range of temperatures for extended periods of time. For example, when stored at room temperature or its preferred lower storage temperature of 4° C.-5° C., substantial stability is maintained for significant periods of time. For example, at a storage temperature of approximately 25° C., the peptide contained in the composition of the present invention remains stable for at least 12 months, and more preferably at least approximately 18 months and, even more preferably, up to and even beyond approximately 24 months, retaining a potency of 90% or more as shown, for example, in FIG. 1. At a storage temperature of 5° C., storage with only marginal degradation (and a potency of at least 90-95%) of up to at least 18 months is regularly observed.
# Whether prepared and stored as an aqueous unbuffered solution, an aqueous buffered solution, a ready-to-use or concentrated, or a lyophilized composition that is subsequently reconstituted, the pharmaceutical compositions of the present invention remains potent during storage for extended periods of time. […]
# [4] = Stability of lyophilized formulations of motilin-like peptide, reconstituted in water (HPLC); details: 30 μg/ml in 10 mM citrate buffer, 1% w/v sucrose, pH 6.0, lyophilized, stored in 20 ml vial at 40° C. for several months (FIG. 5)
# Description: The motilin-like peptide including SEQ ID NO.: 1 was dissolved at a concentration of 30 μg/ml in 10 mM citrate buffer and 1% w/v of sucrose (bulking agent) at pH 6.0. The composition was lyophilized by standard techniques and stored in a 20 ml vial at 40° C. The potency of the motilin-like peptide was measured at the time intervals indicated in FIG. 5, by reconstituting the composition in water. Potency was determined by using HPLC to measure the amount of undegraded peptide remaining in each sample. […] (Again, it will be appreciated by those skilled in the art that the stability of pharmaceutical compositions at elevated temperatures, such as 40° C. as in FIG. 5, may serve as the basis of prediction of stability for longer periods at more typical storage temperatures, such as approximately 20° C.-25° C. or 4° C.-8° C., for example).
substance,measurement,setting,value
"(Me3N)^+Phe-Val-Pro-Ile-Phe-Thr-Tyr-Gly-Glu-Leu-Gln-D-Arg-Leu-Lys-NH2 ({N,N,N‑trimethyl}-FVPIFTYGELQ[dR]LK-NH2) [SEQ ID NO.: 1, synthetic motilin-like peptide receptor agonist]",stability (maintenance of potency),"[1]; 30 μg/ml, several months at 5° C. to 55° C. (FIG. 4)",demonstrated stability
same,stability (maintenance of potency),"[1]; approximately 5 μg/ml, several months at 5° C. to 55° C. (FIG. 3)",demonstrated stability
same,potency retained (undegraded peptide remaining by HPLC),[2],greater than 90%
same,degradation during storage,[3],only minimal degradation
same,potency retained (undegraded peptide remaining by HPLC),[4],greater than 90%
